# Experimental data: patent US20130281314A1
# Columns and labels:
# USP34 [1] = experiment: anti-HA IP-MS, WT HCT116 cells
# USP25 (human) [2] = target: USP25 (human) (UniProt Q9UHP3); experiment: anti-HA IP-MS, WT HCT116 cells
# OTUB1 (human) [3] = target: OTUB1 (human) (UniProt Q96FW1); experiment: anti-HA IP-MS, WT HCT116 cells
# UCHL1 [4] = target: UCHL1 (UniProt P09936); experiment: anti-HA IP-MS, WT HCT116 cells
# USP47 (human) [5] = target: USP47 (human) (UniProt Q96K76); experiment: anti-HA IP-MS, WT HCT116 cells
# USP9X (human) [6] = target: USP9X (human) (UniProt Q93008); experiment: anti-HA IP-MS, WT HCT116 cells
# BRCC36 (human) [7] = target: BRCC36 (human) (UniProt P46736); experiment: anti-HA IP-MS, WT HCT116 cells
# USP14 (human) [8] = target: USP14 (human) (UniProt P54578); experiment: anti-HA IP-MS, WT HCT116 cells
# USP10 [9] = experiment: anti-HA IP-MS, WT HCT116 cells
# USP11 (human) [10] = target: USP11 (human) (UniProt P51784); experiment: anti-HA IP-MS, WT HCT116 cells
# USP15 (human) [11] = target: USP15 (human) (UniProt Q9Y4E8); experiment: anti-HA IP-MS, WT HCT116 cells
# UCHL5 (human) [12] = target: UCHL5 (human) (UniProt Q9Y5K5); experiment: anti-HA IP-MS, WT HCT116 cells
# USP13 (human) [13] = target: USP13 (human) (UniProt Q92995); experiment: anti-HA IP-MS, WT HCT116 cells
# USP8 (human) [14] = target: USP8 (human) (UniProt P40818); experiment: anti-HA IP-MS, WT HCT116 cells
# USP24 (human) [15] = target: USP24 (human) (UniProt Q9UPU5); experiment: anti-HA IP-MS, WT HCT116 cells
# USP34 [16] = experiment: anti-HA IP-MS, HEK293T cells
# USP25 (human) [17] = target: USP25 (human) (UniProt Q9UHP3); experiment: anti-HA IP-MS, HEK293T cells
# OTUB1 (human) [18] = target: OTUB1 (human) (UniProt Q96FW1); experiment: anti-HA IP-MS, HEK293T cells
# UCHL1 [19] = target: UCHL1 (UniProt P09936); experiment: anti-HA IP-MS, HEK293T cells
# USP47 (human) [20] = target: USP47 (human) (UniProt Q96K76); experiment: anti-HA IP-MS, HEK293T cells
# USP9X (human) [21] = target: USP9X (human) (UniProt Q93008); experiment: anti-HA IP-MS, HEK293T cells
# BRCC36 (human) [22] = target: BRCC36 (human) (UniProt P46736); experiment: anti-HA IP-MS, HEK293T cells
# USP14 (human) [23] = target: USP14 (human) (UniProt P54578); experiment: anti-HA IP-MS, HEK293T cells
# USP10 [24] = experiment: anti-HA IP-MS, HEK293T cells
# USP11 (human) [25] = target: USP11 (human) (UniProt P51784); experiment: anti-HA IP-MS, HEK293T cells
# USP19 (human) = USP19 (human) (UniProt O94966); experiment: anti-HA IP-MS, HEK293T cells
# USP15 (human) [26] = target: USP15 (human) (UniProt Q9Y4E8); experiment: anti-HA IP-MS, HEK293T cells
# UCHL5 (human) [27] = target: UCHL5 (human) (UniProt Q9Y5K5); experiment: anti-HA IP-MS, HEK293T cells
# USP13 (human) [28] = target: USP13 (human) (UniProt Q92995); experiment: anti-HA IP-MS, HEK293T cells
# USP8 (human) [29] = target: USP8 (human) (UniProt P40818); experiment: anti-HA IP-MS, HEK293T cells
# USP24 (human) [30] = target: USP24 (human) (UniProt Q9UPU5); experiment: anti-HA IP-MS, HEK293T cells
# Chain of UCHL5 (human) (Q9Y5K5 whole entry): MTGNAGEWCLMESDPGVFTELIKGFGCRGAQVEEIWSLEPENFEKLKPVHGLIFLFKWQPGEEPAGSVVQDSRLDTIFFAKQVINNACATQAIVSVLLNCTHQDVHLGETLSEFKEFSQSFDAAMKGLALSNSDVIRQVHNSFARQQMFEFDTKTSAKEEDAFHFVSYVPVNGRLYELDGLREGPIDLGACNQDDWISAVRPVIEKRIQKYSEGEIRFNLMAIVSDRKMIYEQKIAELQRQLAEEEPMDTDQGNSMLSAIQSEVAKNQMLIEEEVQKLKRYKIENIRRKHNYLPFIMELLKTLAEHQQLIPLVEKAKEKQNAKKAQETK
# Chain of USP8 (human) (P40818 whole entry): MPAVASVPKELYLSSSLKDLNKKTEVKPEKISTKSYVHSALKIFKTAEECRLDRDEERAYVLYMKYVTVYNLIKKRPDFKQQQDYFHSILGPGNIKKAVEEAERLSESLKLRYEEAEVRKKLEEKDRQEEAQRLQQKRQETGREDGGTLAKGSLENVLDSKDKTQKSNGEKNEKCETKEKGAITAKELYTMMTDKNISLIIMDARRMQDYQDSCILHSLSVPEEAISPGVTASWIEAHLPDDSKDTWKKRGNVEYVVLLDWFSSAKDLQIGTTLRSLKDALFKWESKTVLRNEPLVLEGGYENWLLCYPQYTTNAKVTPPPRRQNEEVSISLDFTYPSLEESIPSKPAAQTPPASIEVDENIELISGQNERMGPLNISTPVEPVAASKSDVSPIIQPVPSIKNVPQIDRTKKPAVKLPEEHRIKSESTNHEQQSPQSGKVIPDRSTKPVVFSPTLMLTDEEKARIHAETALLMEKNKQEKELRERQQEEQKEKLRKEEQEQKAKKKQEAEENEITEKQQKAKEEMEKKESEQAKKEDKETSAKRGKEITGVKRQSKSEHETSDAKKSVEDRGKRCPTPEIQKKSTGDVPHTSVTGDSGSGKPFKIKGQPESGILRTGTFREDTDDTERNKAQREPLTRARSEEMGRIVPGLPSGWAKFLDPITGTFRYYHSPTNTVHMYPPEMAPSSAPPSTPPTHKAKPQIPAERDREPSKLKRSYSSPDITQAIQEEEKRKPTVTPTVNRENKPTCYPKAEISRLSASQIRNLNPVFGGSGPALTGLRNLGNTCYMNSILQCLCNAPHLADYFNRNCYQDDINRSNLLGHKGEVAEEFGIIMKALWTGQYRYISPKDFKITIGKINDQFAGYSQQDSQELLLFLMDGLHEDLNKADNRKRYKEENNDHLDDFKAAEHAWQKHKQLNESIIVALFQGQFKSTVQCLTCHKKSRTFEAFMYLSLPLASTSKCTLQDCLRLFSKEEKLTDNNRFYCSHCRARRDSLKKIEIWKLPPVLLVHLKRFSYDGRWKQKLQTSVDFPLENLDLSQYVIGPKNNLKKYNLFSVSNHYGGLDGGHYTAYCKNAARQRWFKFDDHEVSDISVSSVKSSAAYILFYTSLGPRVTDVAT
# Chain of USP15 (human) (Q9Y4E8 2-981 limits assumed): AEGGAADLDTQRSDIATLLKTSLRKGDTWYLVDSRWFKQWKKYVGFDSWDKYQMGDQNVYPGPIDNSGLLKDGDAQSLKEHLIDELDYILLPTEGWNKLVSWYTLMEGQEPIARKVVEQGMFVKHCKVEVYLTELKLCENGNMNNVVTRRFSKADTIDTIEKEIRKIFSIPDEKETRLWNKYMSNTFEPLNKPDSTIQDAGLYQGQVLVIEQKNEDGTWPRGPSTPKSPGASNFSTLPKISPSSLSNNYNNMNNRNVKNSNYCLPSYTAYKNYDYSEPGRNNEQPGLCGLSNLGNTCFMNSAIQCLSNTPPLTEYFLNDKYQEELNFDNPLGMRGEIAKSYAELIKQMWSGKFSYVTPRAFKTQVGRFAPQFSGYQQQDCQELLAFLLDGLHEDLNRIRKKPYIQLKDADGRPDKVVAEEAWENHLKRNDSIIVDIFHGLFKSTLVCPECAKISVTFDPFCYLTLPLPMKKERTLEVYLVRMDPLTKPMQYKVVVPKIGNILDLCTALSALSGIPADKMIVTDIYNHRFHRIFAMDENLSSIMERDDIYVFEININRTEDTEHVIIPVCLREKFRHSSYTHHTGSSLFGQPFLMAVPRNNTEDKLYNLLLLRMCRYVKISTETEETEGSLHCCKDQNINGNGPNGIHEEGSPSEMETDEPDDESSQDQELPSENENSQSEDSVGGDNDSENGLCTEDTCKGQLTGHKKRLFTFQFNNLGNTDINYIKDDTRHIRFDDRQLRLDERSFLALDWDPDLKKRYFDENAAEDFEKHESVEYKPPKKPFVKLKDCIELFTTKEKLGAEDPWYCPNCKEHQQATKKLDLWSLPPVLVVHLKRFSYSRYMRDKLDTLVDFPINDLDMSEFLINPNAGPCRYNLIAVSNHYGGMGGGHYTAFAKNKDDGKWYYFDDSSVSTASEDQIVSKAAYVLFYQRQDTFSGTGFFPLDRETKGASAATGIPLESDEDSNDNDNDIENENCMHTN
# Chain of USP24 (human) (Q9UPU5 whole entry): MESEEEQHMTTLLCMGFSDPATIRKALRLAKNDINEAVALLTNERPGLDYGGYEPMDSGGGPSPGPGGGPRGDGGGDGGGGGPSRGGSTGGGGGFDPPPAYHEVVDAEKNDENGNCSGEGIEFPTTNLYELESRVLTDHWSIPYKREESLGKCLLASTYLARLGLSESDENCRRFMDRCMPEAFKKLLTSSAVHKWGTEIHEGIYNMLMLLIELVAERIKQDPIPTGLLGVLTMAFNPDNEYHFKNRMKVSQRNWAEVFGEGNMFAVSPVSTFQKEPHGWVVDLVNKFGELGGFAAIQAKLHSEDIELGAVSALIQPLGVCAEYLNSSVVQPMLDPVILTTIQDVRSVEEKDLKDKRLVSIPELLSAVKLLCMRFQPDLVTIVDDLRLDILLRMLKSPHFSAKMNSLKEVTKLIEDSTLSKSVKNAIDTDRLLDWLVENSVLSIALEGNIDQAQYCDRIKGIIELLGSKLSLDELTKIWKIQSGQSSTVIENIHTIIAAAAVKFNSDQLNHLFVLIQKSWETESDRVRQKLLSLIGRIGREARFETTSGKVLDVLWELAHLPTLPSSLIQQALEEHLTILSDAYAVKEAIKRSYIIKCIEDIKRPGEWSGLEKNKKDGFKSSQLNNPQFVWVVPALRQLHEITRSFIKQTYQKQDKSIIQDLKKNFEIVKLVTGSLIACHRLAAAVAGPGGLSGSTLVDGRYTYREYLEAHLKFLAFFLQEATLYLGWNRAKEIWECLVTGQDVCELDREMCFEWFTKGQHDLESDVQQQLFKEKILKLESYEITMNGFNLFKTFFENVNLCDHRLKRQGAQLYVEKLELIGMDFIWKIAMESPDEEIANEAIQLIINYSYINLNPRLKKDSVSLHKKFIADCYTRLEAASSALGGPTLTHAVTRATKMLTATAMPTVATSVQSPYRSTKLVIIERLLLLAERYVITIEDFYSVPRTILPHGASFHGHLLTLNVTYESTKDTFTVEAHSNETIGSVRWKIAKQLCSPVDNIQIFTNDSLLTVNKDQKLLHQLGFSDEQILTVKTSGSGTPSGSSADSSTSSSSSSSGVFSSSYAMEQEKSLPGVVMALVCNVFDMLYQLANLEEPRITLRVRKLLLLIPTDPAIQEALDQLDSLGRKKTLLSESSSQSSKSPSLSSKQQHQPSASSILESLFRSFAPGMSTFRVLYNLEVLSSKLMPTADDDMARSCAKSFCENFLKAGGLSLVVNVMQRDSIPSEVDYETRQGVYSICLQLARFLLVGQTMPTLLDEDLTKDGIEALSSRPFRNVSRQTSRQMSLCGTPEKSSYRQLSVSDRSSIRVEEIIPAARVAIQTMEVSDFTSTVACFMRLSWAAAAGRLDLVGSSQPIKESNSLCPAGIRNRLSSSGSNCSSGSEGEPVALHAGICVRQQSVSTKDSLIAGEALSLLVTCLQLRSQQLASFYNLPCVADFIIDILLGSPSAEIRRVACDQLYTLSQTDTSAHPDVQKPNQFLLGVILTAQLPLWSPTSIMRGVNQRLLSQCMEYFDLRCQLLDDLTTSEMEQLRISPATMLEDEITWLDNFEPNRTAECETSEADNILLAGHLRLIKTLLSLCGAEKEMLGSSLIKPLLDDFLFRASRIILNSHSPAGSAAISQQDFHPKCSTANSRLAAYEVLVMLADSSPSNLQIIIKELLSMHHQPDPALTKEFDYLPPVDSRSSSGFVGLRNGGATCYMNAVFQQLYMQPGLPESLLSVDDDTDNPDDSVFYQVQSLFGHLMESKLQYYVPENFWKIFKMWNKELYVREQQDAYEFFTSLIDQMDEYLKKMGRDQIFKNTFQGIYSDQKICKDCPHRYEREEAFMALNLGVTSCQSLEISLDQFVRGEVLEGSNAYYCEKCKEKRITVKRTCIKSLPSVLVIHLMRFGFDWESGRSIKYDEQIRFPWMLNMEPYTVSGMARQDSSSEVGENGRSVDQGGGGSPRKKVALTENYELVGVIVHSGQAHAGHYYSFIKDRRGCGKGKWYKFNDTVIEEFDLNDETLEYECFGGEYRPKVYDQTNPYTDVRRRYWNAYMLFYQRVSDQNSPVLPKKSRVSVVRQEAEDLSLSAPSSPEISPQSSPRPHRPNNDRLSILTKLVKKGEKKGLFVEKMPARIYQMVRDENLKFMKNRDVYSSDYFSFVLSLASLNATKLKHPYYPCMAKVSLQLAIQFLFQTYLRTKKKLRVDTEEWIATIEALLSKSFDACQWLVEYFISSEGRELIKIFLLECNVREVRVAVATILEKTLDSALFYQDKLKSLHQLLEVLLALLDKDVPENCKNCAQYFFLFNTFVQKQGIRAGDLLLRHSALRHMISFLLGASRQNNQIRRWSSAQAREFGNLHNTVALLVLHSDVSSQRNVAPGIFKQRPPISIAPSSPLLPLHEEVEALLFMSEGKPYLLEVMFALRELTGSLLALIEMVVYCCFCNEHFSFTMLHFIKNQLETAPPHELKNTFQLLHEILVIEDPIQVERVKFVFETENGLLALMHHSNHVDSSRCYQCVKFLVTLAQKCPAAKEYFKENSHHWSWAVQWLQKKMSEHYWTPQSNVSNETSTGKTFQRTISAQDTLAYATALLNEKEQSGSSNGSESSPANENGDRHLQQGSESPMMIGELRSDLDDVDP
substance,measurement,setting,value
HA-UbΔGG,total peptides (unique peptides),USP34 [1],0 peptides
same,total peptides (unique peptides),USP25 (human) [2],34 peptides
same,total peptides (unique peptides),OTUB1 (human) [3],10 peptides
same,total peptides (unique peptides),UCHL1 [4],0 peptides
same,total peptides (unique peptides),USP47 (human) [5],0 peptides
same,total peptides (unique peptides),USP9X (human) [6],12 peptides
same,total peptides (unique peptides),BRCC36 (human) [7],1 peptides
same,total peptides (unique peptides),USP14 (human) [8],3 peptides
same,total peptides (unique peptides),USP10 [9],8 peptides
same,total peptides (unique peptides),USP11 (human) [10],10 peptides
same,total peptides (unique peptides),USP15 (human) [11],7 peptides
same,total peptides (unique peptides),UCHL5 (human) [12],6 peptides
same,total peptides (unique peptides),USP13 (human) [13],1 peptides
same,total peptides (unique peptides),USP8 (human) [14],3 peptides
same,total peptides (unique peptides),USP24 (human) [15],1 peptides
same,total peptides (unique peptides),USP34 [16],1 peptides
same,total peptides (unique peptides),USP25 (human) [17],2 peptides
same,total peptides (unique peptides),OTUB1 (human) [18],9 peptides
same,total peptides (unique peptides),UCHL1 [19],3 peptides
same,total peptides (unique peptides),USP47 (human) [20],2 peptides
same,total peptides (unique peptides),USP9X (human) [21],40 peptides
same,total peptides (unique peptides),BRCC36 (human) [22],0 peptides
same,total peptides (unique peptides),USP14 (human) [23],4 peptides
same,total peptides (unique peptides),USP10 [24],6 peptides
same,total peptides (unique peptides),USP11 (human) [25],4 peptides
same,total peptides (unique peptides),USP19 (human),54 peptides
same,total peptides (unique peptides),USP15 (human) [26],1 peptides
same,total peptides (unique peptides),UCHL5 (human) [27],9 peptides
same,total peptides (unique peptides),USP13 (human) [28],0 peptides
same,total peptides (unique peptides),USP8 (human) [29],1 peptides
same,total peptides (unique peptides),USP24 (human) [30],20 peptides
